Results as given in US20260008865A1 (TETHEREX PHARMACEUTICALS, published 2026).

Key:
[1] = target: T1, SelSP1 (PSGL-1 sulfopeptide); assay: SPR (SensiQ Pioneer), about 2,000 RU SelK2 captured on Protein G, SelSP1 as analyte, 25 °C, 1:1 model
T1 construct: also called sulfopeptide modelled after the N-terminus of human PSGL-1
Experimental: (§1) SensíQ Pioneer (S/N 13110154) was used for all SPR measurements at a controlled temperature of 25° C. SelK2 (Lot #14-2189) was dispensed into three 1 mL aliquots in the biosafety cabinet. Protein G was purchased from BioVision (Cat. #6510). Running buffer for Pioneer contained 10 mM HEPES pH 7.4, 150 mM NaCl, 3.4 mM EDTA and 0.005% Tween-20. All other reagents were purchased from Sigma Aldrich.
(§2) A new COOH2 biosensor was installed and conditioned according to CH0012 protocol. Protein G was immobilized via amine coupling. A mixture containing 0.1M EDC and 0.025M NHS was injected for 4 minutes over flow channel 1 (FC1) and FC2. 50 μg/mL Protein G in 10 mM Sodium acetate buffer pH 4.5 was injected for 15 minutes over FC1 and FC2. 1M Ethanolamine HCl solution pH 8.0 was injected for 5 minutes over FC1 and FC2. Approximately 1,145 response units (RU) of Protein G was coupled on FC1 and FC2 of the sensor chip. 50 nM SelK2 in system buffer was injected to capture approximately 2,000 RU SelK2 on FC1 and 1,000 RU on FC2. […] Each sample was injected for 3 min at a flow rate of 40 μL/min. Dissociation was monitored after each injection for 4 min at the same flow rate. Samples were tested in duplicate from low concentration to high.
(§3) Kinetic model fitting was performed using Qdat analysis software (SensiQ Technologies, Inc. Version 2.5.1.56). A simple 1:1 kinetic model was fit to the data to determine best fit values for association and dissociation rate constants, ka and kd. A local Rmax was fit for each curve to account for incomplete dissociation of the SelSP1 after some of the analyte injections.

[2] = target: T1, SelSP1 (PSGL-1 sulfopeptide); assay: SPR, captured SelK2, SelSP1 as analyte; value told over the two surface densities
Experimental: as §2, §3

[3] = target: T1, SelSP1 (PSGL-1 sulfopeptide); assay: SPR; summary sentence in the description; target printed as PSGL-1, but the worked example used the PSGL-1 sulfopeptide SelSP1
[4] = target: T1, SelSP1 (PSGL-1 sulfopeptide); assay: SPR (SensiQ Pioneer), about 1,000 RU SelK2 captured on Protein G, SelSP1 as analyte, 25 °C, 1:1 model
Experimental: as §1, §2, §3

- Kd [1]: 4.29 nM
- koff [1]: 0.00218 s⁻¹
- kon [1]: 508000 M⁻¹ s⁻¹
- Kd [2]: 4.28 nM
- fold increase in affinity against the parental antibody [3]: ~4 fold
- Kd [4]: 4.27 nM
- koff [4]: 0.00232 s⁻¹
- kon [4]: 544000 M⁻¹ s⁻¹
B1: SelK2 (antibody, human IgG2, kappa, V domains shown)
VH: QVQLVESGGGVVQPGRSLRLSCAASGFTFSSFGMHWVRQAPGKGLEWVAYISSASSTIYYADTVKGRFTISRDNSKNTLYLQMNSLRAEDTAVYYCASSYGYWGQGTLVTVSS
VL: DIVMTQTPLSLPVTPGEPASISCRSSRSLVHSNGNTYLHWYLQKPGQSPQLLIYKVSNRFSGVPDRFSGSGSGTDFTLKISRVEAEDVGVYYCSQTTHVPLTFGQGTRLEIKR
notes: human kappa light chain; also called SelK2 antibody; humanised anti-PSGL-1 antibody
